Source: patent US20250042994A1 (HAINAN SIMCERE ZAIMING PHARMACEUTICAL, published 2025)

T1: Human CD19-his protein (human, UniProt P15391 20-291)
T1 construct: bought protein; also called human CD19 protein; recombinant human CD19-His; not shown: His tag
T1 sequence (looked up): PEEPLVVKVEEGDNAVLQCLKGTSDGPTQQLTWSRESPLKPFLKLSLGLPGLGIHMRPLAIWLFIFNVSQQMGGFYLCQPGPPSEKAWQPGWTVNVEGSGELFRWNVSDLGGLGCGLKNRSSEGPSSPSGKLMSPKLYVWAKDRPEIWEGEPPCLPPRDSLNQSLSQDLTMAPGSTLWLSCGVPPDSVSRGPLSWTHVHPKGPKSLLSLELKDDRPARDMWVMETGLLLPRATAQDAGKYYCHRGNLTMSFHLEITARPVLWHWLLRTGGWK

T2: murine CD19 protein (murine, UniProt P25918 17-287, limits assumed)
T2 construct: bought protein; also called commercial murine CD19
T2 sequence (looked up): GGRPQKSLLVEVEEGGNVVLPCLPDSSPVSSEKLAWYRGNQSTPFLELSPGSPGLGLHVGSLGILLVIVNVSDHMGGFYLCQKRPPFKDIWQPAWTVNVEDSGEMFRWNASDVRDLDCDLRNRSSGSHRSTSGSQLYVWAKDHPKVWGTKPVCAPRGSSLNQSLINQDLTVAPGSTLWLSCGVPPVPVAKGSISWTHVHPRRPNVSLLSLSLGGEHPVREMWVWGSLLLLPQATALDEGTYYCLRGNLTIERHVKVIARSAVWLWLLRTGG

T3: human CD19 exon1-3-his protein (human, UniProt P15391 20-186, limits assumed)
T3 construct: made in HEK293E cells; also called membrane-distal end; not shown: His tag
T3 sequence (looked up): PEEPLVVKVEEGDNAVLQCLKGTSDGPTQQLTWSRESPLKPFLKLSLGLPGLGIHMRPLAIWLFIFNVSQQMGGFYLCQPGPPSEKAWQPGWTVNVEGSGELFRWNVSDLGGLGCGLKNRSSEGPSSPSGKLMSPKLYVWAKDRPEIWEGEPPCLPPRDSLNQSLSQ


How the values were obtained:
Human CD19-his protein [1] = target: T1, Human CD19-his protein; experiment: ELISA, antibody at 0.10 nM
Human CD19-his protein [2] = target: T1, Human CD19-his protein; experiment: ELISA, antibody at 1.00 nM
Human CD19-his protein [3] = target: T1, Human CD19-his protein; experiment: ELISA, antibody at 100 nM
Human CD19-his protein [4] = target: T1, Human CD19-his protein; experiment: ELISA, antibody at 10 nM
murine CD19 protein = target: T2, murine CD19 protein; experiment: ELISA, coated murine CD19
Outline: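 Plates coated overnight at 4° C with recombinant murine or monkey CD19 and blocked with 2% BSA. Chimeric antibodies, serially diluted from 100 nM, bound for 2 h at 37° C. TMB development for 10 min with OD450 read-out.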

Human CD19-his protein [5] = target: T1, Human CD19-his protein; experiment: ELISA, antibody at 0.001 nM
Human CD19-his protein [6] = target: T1, Human CD19-his protein; experiment: ELISA, antibody at 0.01 nM
Human CD19-his protein [7] = target: T1, Human CD19-his protein; experiment: ELISA on coated human CD19-His
Protocol: (§1) Human CD19-his protein (purchased from ACROBiosystems, catalog number: CD9-H52H2) was diluted with PBS to a final concentration of 4 μg/mL, and then added to a 96-well ELISA plate at 100 μl/well. The plate was sealed with a plastic film and incubated overnight at 4° C., the plate was washed 2 times with PBS the next day, and then a blocking solution [PBS+2% (w/w) BSA] was added for blocking at room temperature for 2 h. The blocking solution was poured off, and 100 nM gradiently diluted CD19 chimeric antibody or control antibody was added at 50 μl/well. After incubation at 37° C. for 2 h, the plate was washed 3 times with PBS. […] TMB substrate was added at 50 μl/well, and incubated at room temperature for 10 min, and then a stop solution (1.0 N HCl) was added at 50 μl/well. The OD450 nm values were read by an ELISA microplate reader (Multimode Plate Reader, EnSight, purchased from Perkin Elmer).

Human CD19-his protein [8] = target: T1, Human CD19-his protein; experiment: ELISA, antibody at 0.0001 nM
[9] = target: T3, human CD19 exon1-3-his protein; experiment: ELISA, coated at 2 ug/mL
Protocol: as §1
CD19 protein contains 4 exons in the extracellular region, in which exons 1-3 are located at the membrane-distal end and exon 4 is located at the membrane-proximal end. […] To identify the distribution of antigen binding epitopes of the chimeric antibodies, human CD19 exon 1-3-His (membrane-distal end) was used to coat at 2 μg/mL according to the ELISA method in example 5.1.

Row | Binder | OD450 (Human CD19-his protein [1]) | OD450 (Human CD19-his protein [2]) | OD450 (Human CD19-his protein [3]) | OD450 (Human CD19-his protein [4]) | binding result (murine CD19 protein) | OD450 (Human CD19-his protein [5]) | OD450 (Human CD19-his protein [6]) | EC50 (read off the curve) (Human CD19-his protein [7]) [pM] | OD450 (Human CD19-his protein [8]) | binding result [9]
1 | F3.124.7 (antibody, human IgG1, V domains shown, human-murine chimeric antibody, human IgG1) VH: EVQLQQSGPVLVKPGASVKMSCKASGYTFTDYYMNWVKQRHGKSLEWIGISNPYNGGTSYNQKFKDKATLTVDKSSSTAYMELNSLTSEDSAVYYCAREGGTAQPTSGMDYWGQGTSVTVSS VL: NIMMTQSPSSLAVSAGEKVTMSCKSSQSVLYSSNQKNYLAWYQQKPGQSPKLLIYWASTRESGVPDRFTGSGSGTDFTLTISSVQPEDPAVYYCHQYRSSYTFGGGTKLEIK | 2.08 | 2.6 | 2.75 | 2.63 | no binding | 0.18 | 0.81 | ~30 | 0.08 | 
2 | F4.4.6 (antibody, human IgG1, V domains shown, human-murine chimeric antibody, human IgG1) VH: QVQLQQSGAELARPGASVKLSCKASGYTFTSYWMQWVKQRPGQGLEWIGAIYPGDGDSRYTQKFKGKATLTADKSSSTAYMQLSSLASEDSAVYYCARSTTTVLGNNFEYWGQGTTLTVSS VL: QIVLTQSPAIMSALPGEKVTMTCSASSSVSSMHWYQQKSGTSPKRWIYDTSKLASGVPARFSGSGSGTSYSLTISSMEAEDAATYYCQQWSSNPWTFGGGTKLEIK | 0.37 | 0.6 | 0.79 | 0.58 | no binding | 0.06 | 0.1 | ~100 | 0.05 | no binding
3 | F4.78.1 (antibody, human IgG1, V domains shown, human-murine chimeric antibody, human IgG1) VH: QVQIQQSGAELARPGASVKLSCKASGYTFTNYWMQWIKQRPGQGLEWIGAIYPGDGDTRYTQKFKGKATLTADKSSSTAYMQLSSLASEDSAVYYCAREEVWSPYGMDYWGQGTSVTVSS VL: QIVLTQSPAIMSASPGEKVTITCSASSSVSYMGWFQQKPGTSPKLWIYSTSNLASGVPARFSGSGSGTSYSLTISRMEAEDAATYYCQQRSIYPLTFGAGTKLELK | 1.09 | 1.73 | 1.87 | 1.94 | no binding | 0.08 | 0.23 | ~70 | 0.06 | no binding
4 | F3.118.14 (antibody, human IgG1, V domains shown, human-murine chimeric antibody, human IgG1) VH: QVQLQQSGAELVRPGASVTLSCKASGYTFPDYEIHWVKQTPVHGLEWIGAIDPETGGIGYNQKFTGKAMLTADKSSSTAYMELRSLTSEDSAVYFCTRNYGSRWGQGSTLTVSS VL: not shown | 1.02 | 2.27 | 3.21 | 2.9 | no binding | 0.07 | 0.19 | ~300 | 0.05 | 
5 | F3.148.10 (antibody, human IgG1, V domains shown, human-murine chimeric antibody, human IgG1) VH: EVQLQQSGAELVRPGSSVTMSCKTSGYTFTNYGINWVKQRPGQGLEWIGYIFIGNDYTEYNEKFKGKATLTSDTSSSTAYMQLSSLTSEDSAIYFCTRFYSNYYGMDPWGQGTSVTVSS VL: not shown | 0.98 | 2.66 | 3.01 | 2.94 | no binding | 0.07 | 0.22 | ~200 | 0.05 | 

The next lines start with the values.

Row | OD450 (Human CD19-his protein [1]) | OD450 (Human CD19-his protein [2]) | OD450 (Human CD19-his protein [3]) | OD450 (Human CD19-his protein [4]) | binding result (murine CD19 protein) | OD450 (Human CD19-his protein [5]) | OD450 (Human CD19-his protein [6]) | EC50 (read off the curve) (Human CD19-his protein [7]) [pM] | OD450 (Human CD19-his protein [8]) | binding result [9] | Binder
6 | 1.07 | 1.68 | 1.84 | 1.54 | no binding | 0.09 | 0.23 | ~60 | 0.06 | no binding | F4.125.12 (antibody, human IgG1, V domains shown, human-murine chimeric antibody, human IgG1) VH: EVKLVESGGGLVQPGGSLKLSCAASGFTFSTYTMSWVRQTPEKRLEWVAFISSGGGHINYPDTVKGRFTISRDNAKNTLYLQMSSLKSEDTAMYYCARHSYWFFDVWGAGTTVTVSS VL: DVQITQSPSYLAASPGETITINCRASKNIDTYLAWYQEKPGKTNKLLIYSGSTLQSGIPSRFRGGGSGTDFTLTICSLEPEDFAMYYCQQHNEYPLTFGAGTKLELK
7 | 1.33 | 1.93 | 1.77 | 1.75 | no binding | 0.08 | 0.27 | ~40 | 0.05 | no binding | F4.107.12 (antibody, human IgG1, V domains shown, human-murine chimeric antibody, human IgG1) VH: EVQLQQSGPELVKPGASVKMSCKASGYTFTSYVLHWVRQKPGQGLEWIGYFNPYNDGTEYNEKFKGKAILTSDKSSSTAYMELNSLTSEDSAVYYCVGGTYYYGSSYPFAYWGQGTLVTVST VL: DVVMTQISLSLPVSLGDQASISCRSSQSLIHSNGNTYLQWYLQKPGQSPKLLIYKVSNRLSGVPDRFSGSGSGTDFTLKISRVEAEDLGVYFCSQSTHVPYTFGGGTKLEIK
8 | 0.85 | 1.6 | 1.52 | 1.55 | no binding | 0.18 | 0.24 | ~80 | 0.09 | no binding | F4.82.11 (antibody, human IgG1, V domains shown, human-murine chimeric antibody, human IgG1) VH: QVTLKESGPGILQASQTLSLTCSFSGFSLSTFGIGVGWVRQPSGKGLEWLAHIWWNDNKFFNTTLKNRLTLSKDPSNNQVFLKIASVDTADTATYYCARSRSALITTGLYAMDYWGQGTSVTVSS VL: DIQMTQTPSSLSASLGDRVTISCRSSQDISNYVNWYQQKPDGTVKVLINYTSRLHSGVPSRFSGSGSGTDYSLTISNLEQEDIASYFCQQGFTLPYTFGGGTKLEIK
9 | 1.11 | 1.79 | 1.84 | 1.73 | no binding | 0.08 | 0.27 | ~60 | 0.06 | no binding | F4.145.9 (antibody, human IgG1, V domains shown, human-murine chimeric antibody, human IgG1) VH: EVQLVESGGGLVKPGGSLKLSCAAAGFAFSSYDMSWVRQIPEKRLEWVAYISAGGGNTYFLDTVKGRFTISRDHAKNTLSLQMSSLKSEDTAMYFCVRHGDYYRYFYAMDYWGQGSSVTVSS VL: DIVMTQSHKFMSTSVGDRVSITCKASQDVGTAVAWSQQKPGQSPKLLIYWASTRHTGVPDRFTGSGSGTDFTLTISNVQSEDLADYFCQQFVTYPYTFGGGTKLEIK
10 | 1.28 | 2.12 | 2.07 | 2.01 | no binding | 0.07 | 0.26 | ~60 | 0.05 | no binding | F4.152.7 (antibody, human IgG1, V domains shown, human-murine chimeric antibody, human IgG1) VH: QVQLQQPGAELVKPGASVKLSCKASGYTFTSYWMHWVKQRPGQGLEWIGEIDPSDSYTNYNQKFKGKATLTADKSSSTAYMQLSGLTSEDSAVYHCARGGDYDGYYVMDYWGQGTSVTVSS VL: EIVLTQSPTTMAASPGEKITITCSASSSISSNYLHWYQQKPGFSPKLLIYRTSNLASGVPARFSGSGSGTSYSLTIGTMEADDVATYYCQQGSYIPRIFTFGSGTKLEIK
